According to US20220177841A1, “EX VIVO METHODS FOR PRODUCING A T CELL THERAPEUTIC AND RELATED COMPOSITIONS AND METHODS” (Myst Therapeutics LLC, priority 2019, published 2022):

Test system: expanded human T cells from three healthy donors
Experiment: T cell adjuvant high throughput screen, total viable CD3+ cell count
Type: cell-based
Conditions: 62.5 IU/ml-1000 IU/ml; 6 days
Protocol: Cells were expanded from PBMC derived from Ficoll gradient separation from three healthy donor's apheresis material. […] Cells were next seeded into gas permeable 100M culture vessels and expanded for 7-14 days to achieve a large bank of T cells, and cryopreserved. […] Half of wells were additionally supplemented with 50 ng/mL OKT3, a human anti-CD3 monoclonal antibody. In total, 15 test adjuvant agents were tested for their impact on cell viability in the presence and absence of anti-CD3 activation (see Table E3). Cells were cultured for 6 days total, including a 50% medium exchange on culture day 3, and monitored for total viable CD3+ cell count.
Total viable CD3+ cell count for cells grown in the absence and presence of OKT3 stimulation are shown in FIGS. 27A-C and FIGS. 28A-C, respectively. The results shown are for the following concentrations of adjuvant: 10 μg/mL for tested antibodies (Tavolixizumab, Oxelumab, Ipilimumab, Tocilizumab, Urelumab, Pembrolizumab, Varlilumab, anti-GITR MK-1248, anto-human FasL); 25 μM for Z-VAD-FMK pan-caspase inhibitor; 250 nM for HSP inhibitor NVP-HSP990; and 1000 IU/mL for cytokine (IL-7, IL-15 or IL-21).

B1: IL-7: recombinant cytokine tested as T cell adjuvant (protein, UniProt P13232 26-177, looked up)
Interleukin-7: DCDIEGKDGKQYESVLMVSIDQLLDSMKEIGSNCLNNEFNFFKRHICDANKEGMFLFRAARKLRQFLKMNSTGDFDLHLLKVSEGTTILLNCTGQVKGRKPAALGEAQPTKSLEENKSLKEQKKLNDLCFLKRLLQEIKTCWNKILMGTKEH
With B1 the “dose response, cell number” value was “cell number increased with increasing concentration”.
